Measured values reported in patent CN114685674A.

Biological target: VEGF165 (UniProt P15692)
Assay: cell-based or functional assay

UniProt P15692, sequence (P15692 other isoform, or with tags, fused parts or gaps): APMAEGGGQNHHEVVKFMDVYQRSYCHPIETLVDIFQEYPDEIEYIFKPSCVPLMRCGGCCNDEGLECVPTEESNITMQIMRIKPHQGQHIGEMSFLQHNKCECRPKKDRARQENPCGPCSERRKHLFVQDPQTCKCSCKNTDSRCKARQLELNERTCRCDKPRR

HUVEC细胞增殖抑制 EC50: 0.221 nM
Substance: Conbercept(康柏西普) (Fc fusion)
